Key:
[1] = biological target: HB-EncK138^TEV-His, EncD60^TEVK138^TEV-His, and HB-EncV57^TEVK138^TEV-His
[2] = biological target: T1, HB-EncD60^TEVK138^TEV-His
T1 chain: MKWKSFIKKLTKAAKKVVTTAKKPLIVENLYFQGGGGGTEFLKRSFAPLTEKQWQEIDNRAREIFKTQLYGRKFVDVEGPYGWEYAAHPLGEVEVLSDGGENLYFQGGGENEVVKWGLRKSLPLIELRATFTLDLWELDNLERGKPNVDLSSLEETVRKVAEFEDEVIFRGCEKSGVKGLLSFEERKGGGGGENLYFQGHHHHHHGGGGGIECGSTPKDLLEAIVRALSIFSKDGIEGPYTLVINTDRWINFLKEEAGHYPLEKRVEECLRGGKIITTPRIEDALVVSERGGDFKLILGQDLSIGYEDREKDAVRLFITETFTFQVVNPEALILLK

[3] = biological target: T2, Ap-EncD60^TEVK138^TEV-His
T2 chain: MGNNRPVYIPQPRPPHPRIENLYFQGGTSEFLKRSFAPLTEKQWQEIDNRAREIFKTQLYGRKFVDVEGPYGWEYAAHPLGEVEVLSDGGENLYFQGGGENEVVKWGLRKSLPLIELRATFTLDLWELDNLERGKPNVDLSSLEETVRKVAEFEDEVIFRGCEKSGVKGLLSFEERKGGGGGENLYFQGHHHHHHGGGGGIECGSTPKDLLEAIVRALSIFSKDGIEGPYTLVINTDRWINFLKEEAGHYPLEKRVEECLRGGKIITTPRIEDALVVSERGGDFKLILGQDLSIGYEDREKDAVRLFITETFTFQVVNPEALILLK

Ap-EncK138^TEV-His = biological target: T3, Ap-EncK138^TEV-His
T3 chain: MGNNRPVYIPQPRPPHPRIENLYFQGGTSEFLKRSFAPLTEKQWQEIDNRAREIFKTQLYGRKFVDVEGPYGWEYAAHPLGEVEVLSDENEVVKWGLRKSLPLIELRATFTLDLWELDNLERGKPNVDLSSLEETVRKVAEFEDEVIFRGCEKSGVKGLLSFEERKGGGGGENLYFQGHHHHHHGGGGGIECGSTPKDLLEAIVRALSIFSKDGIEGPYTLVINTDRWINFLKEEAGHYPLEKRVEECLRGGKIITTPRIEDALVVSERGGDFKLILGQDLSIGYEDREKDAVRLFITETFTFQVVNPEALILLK

[4] = biological target: T4, HB-EncV57^TEVK138^TEV-His with a GT linker between the TEV site and the N-terminus of Enc
T4 chain: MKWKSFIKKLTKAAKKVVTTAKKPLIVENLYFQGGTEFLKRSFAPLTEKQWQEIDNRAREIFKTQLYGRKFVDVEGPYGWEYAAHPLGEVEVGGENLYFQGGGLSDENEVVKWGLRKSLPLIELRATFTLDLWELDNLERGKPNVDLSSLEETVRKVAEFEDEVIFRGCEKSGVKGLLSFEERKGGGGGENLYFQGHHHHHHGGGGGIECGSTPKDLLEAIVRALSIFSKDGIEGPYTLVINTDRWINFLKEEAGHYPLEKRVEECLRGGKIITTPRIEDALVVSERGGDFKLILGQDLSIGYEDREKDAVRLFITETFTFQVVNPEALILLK

[5] = biological target: T5, HB-EncK138^TEV-His with a GT linker between the TEV site and the N-terminus of Enc
T5 chain: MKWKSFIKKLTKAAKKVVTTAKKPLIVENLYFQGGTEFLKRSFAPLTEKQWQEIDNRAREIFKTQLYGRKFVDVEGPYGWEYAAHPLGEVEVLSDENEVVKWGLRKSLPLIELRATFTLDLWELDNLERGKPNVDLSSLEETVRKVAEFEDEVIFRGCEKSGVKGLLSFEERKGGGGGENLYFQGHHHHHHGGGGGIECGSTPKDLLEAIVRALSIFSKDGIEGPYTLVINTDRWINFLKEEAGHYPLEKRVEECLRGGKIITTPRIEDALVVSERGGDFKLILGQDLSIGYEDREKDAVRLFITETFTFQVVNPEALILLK

HB-EncK138^TEV-His = biological target: T6, HB-EncK138^TEV-His
T6 chain: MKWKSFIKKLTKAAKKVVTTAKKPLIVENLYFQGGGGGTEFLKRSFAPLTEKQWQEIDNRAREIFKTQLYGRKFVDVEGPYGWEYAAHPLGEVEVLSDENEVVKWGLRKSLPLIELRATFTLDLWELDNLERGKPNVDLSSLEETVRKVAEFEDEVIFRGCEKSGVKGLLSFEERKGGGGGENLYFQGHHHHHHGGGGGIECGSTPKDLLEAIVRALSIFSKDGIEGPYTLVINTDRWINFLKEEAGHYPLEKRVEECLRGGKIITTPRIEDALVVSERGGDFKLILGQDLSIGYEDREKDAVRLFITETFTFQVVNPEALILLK

[6] = biological target: T7, HB-EncV57^TEVK138^TEV-His
T7 chain: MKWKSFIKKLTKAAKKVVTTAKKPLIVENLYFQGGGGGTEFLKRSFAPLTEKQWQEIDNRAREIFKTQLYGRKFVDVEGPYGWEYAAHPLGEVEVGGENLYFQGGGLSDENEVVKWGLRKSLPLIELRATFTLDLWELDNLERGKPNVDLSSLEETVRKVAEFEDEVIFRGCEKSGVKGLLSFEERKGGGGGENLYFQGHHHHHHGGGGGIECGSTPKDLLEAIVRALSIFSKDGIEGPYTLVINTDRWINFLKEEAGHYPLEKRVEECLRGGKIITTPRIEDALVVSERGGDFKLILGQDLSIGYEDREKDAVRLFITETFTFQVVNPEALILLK

[7] = biological target: T8, HB-EncD60^TEVK138^TEV-His with a GT linker between the TEV site and the N-terminus of Enc
T8 chain: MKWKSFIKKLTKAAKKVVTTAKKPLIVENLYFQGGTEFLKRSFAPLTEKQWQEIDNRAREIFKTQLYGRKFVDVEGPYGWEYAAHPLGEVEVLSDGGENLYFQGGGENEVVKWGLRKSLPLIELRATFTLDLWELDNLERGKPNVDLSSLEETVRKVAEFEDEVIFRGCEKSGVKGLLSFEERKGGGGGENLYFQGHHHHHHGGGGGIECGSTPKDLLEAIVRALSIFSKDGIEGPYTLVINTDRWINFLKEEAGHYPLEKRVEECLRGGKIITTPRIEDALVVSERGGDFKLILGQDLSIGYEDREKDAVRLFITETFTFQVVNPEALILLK

[8] = biological target: T9, Ap-EncK71^TEVK138^TEV-His
T9 chain: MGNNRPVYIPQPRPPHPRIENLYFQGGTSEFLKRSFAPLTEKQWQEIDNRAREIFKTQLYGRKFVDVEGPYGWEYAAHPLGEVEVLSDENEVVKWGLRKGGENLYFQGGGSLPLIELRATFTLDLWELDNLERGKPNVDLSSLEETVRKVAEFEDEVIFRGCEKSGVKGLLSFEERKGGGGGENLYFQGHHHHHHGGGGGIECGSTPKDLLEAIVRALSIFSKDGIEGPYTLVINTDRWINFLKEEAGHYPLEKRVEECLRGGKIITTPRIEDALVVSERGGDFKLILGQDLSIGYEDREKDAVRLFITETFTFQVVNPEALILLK

B1: TEV protease (protein)
chain: GESLFKGPRDYNPISSTICHLTNESDGHTTSLYGIGFGPFIITNKHLFRRNNGTLLVQSLHGVFKVKNTTTLQQHLIDGRDMIIIRMPKDFPPFPQKLKFREPQREERICLVTTNFQTKSMSSMVSDTSCTFPSSDGIFWKHWIQTKDGQCGSPLVSTRDGFIVGIHSASNFTNTNNYFTSVPKNFMELLTNQEAQQWVSGWRLNADSVLWGGHKVFMSKPEEPFQPVKEATQLMNELVYSQ
In the case of B1, the “relative HB/HB-Enc ratio (densitometry after TEV protease digestion)” value [1] is reported as “a relative HB/HB-Enc ratio of 0.26 to 0.56”, the “release of HBCM2 peptide after TEV protease digestion (densitometry)” value (“release of HBCM2 peptide … (densitometry)” for short) [2] is reported as “released fewer peptide per fusion protein” and the “release of HBCM2 peptide after TEV protease digestion (overnight, 4 C; Tris-Tricine gel)” value (“release … (overnight, 4 C; Tris-Tricine gel)” below) [2] is reported as “All constructs were found to at least partially release HBCM2 peptide”. For the same protein, the “TEV protease digestion, SDS-PAGE and anti-TEV site Western blot (up to 20 h at 30 C)” value (“TEV protease digestion … (up to 20 h at 30 C)” below) [3] was “not well digested by TEV protease”, the “TEV protease digestion … (up to 20 h at 30 C)” value (Ap-EncK138^TEV-His) was “not well digested by TEV protease” and the “release of HB peptide after TEV protease digestion (SDS-PAGE)” value (shortened to “release of HB peptide”) [4] was “did not result in detectable release of HB peptide by SDS-PAGE”. The “release of HB peptide” value [5] was “did not result in detectable release of HB peptide by SDS-PAGE”, the “release of HBCM2 peptide … (densitometry)” value (HB-EncK138^TEV-His) was “released fewer peptide per fusion protein” and the “release … (overnight, 4 C; Tris-Tricine gel)” value (HB-EncK138^TEV-His) was “All constructs were found to at least partially release HBCM2 peptide”. The “release of HBCM2 peptide … (densitometry)” value [6] was “released fewer peptide per fusion protein”, the “release … (overnight, 4 C; Tris-Tricine gel)” value [6] was “All constructs were found to at least partially release HBCM2 peptide” and the “release of HB peptide” value [7] was “did not result in detectable release of HB peptide by SDS-PAGE”. The “TEV protease digestion … (up to 20 h at 30 C)” value [8] was “construct 125 (Ap-Encap(K71, K138)) is digested by TEV protease to near completion”.
